Measured values: patent US20260217854A1

Target: coil 2 domain of TMCC3 protein (UniProt Q9ULS5)
Test: ELISA on TMCC3 domain proteins

B1: mouse anti-TMCC3 8D6 monoclonal antibody (antibody, V domains shown)
VH: EIQLQQSGGELVKPGASVKISCTASGYSFTGYNMNWVKQSHGKSPEWIGNINPYYGSTSYNQKFKGKATLTVDKSSSTAYMQLNSLTSEDSAVYYCARWLGLGYAMDYWGQGTSVTVSS
VL: DIVLTQSPASLVVSLGQGATISCRASKSVSPSGYSSMHWYQQKPGQPPKLLIYLASNLESGVPARFSGSGSGTDFTLNIHPVEEEDAATYYCQHSRELPWTFGGGTKLEIKR
Kd: 10 pM
